# Assay results published in PMC8120272, “Heterologous Expression and Biochemical Characterization of the Human Zinc Transporter 1 (ZnT1) and Its Soluble C-Terminal Domain” (Frontiers in Chemistry, 2021).
# Target: the molecule itself
# Assay: SEC-SAXS (small-angle X-ray scattering); in-line SEC-SAXS with sheath flow, SAXS-WAXS beamline of the Australian Synchrotron; molecular mass estimated from the Porod volume; conditions in Supplementary Table 3
protein,measurement,value
"soluble C-terminal domain of human zinc transporter 1 (hZnT1-CTD) (domain or fragment, UniProt Q9Y6M5 342-507, looked up, human zinc transporter 1 (ZnT1, SLC30A1), soluble C-terminal domain, residues 342-507; Cloned into pET24a with a C-terminal His8-tag; no removal of the tag is described) ILLQTVPKQIDIRNLIKELRNVEGVEEVHELHVWQLAGSRIIATAHIKCEDPTSYMEVAKTIKDVFHNHGIHATTIQPEFASVGSKSSVVPCELACRTQCALKQCCGTLPQAPSGKDAEKTPAVSISCLELSNNLEKKPRRTKAENIPAVVIEIKNMPNKQPESSL",stoichiometry N,2
